Source: US20240200081A1, “NUCLEIC ACID MOLECULE CONJUGATE HAVING PROLONGED IN VIVO HALF-LIFE” (APTACURE THERAPEUTICS LIMITED, published 2024)

Assays:
[1] = target: sclerostin (UniProt Q9BQB4 Q9BQB4:24-213); assay: cell_activity; inhibition potency, TOP-Wnt luciferase reporter; conditions: tags: expressed from transfected sclerostin plasmid in MC3T3-E1 cells
Method: To study the inhibition potency of aptamers against sclerostin's antagonistic effect on Wnt signaling, a TOP-Wnt induced luciferase reporter assay was used in osteoblast MC3T3-E1 cells (van Bezooijen, Svensson et al. 2007, Shum, Chan et al. 2011).
MC3T3-E1 cells were seeded in 24-well plates and cells were transfected with corresponding reporter plasmid (100 ng), Wnt3a plasmid (800 ng) and sclerostin plasmid (800 ng) as necessary using FuGENE HD transfection reagent (Promega) in the following day. 10 hours after transfection, culture medium was changed to fresh medium and cells were treated with aptamers/antibody. 24 hours after treatment, each well of cells was lysed with 100 μl passive lysis buffer and 20 μl was taken for analysis. The Luciferase Assay Reagent II and Stop & Glo Reagent were prepared and added automatically by SpectraMax i3x Multi-Mode Detection Platform (Molecular Device) according to the manufacturer's protocol (Promega) and data was analyzed accordingly (Grentzmann, Ingram et al. 1998, McNabb, Reed et al. 2005).

[2] = target: sclerostin (Homo sapiens, UniProt Q9BQB4 SEQ:1-190); assay: ELONA; PBS, 1 mM MgCl2, RT; p158 prints 3' end as CT GCCC, APC001 as U G C C; conditions: tags: His6 (SELEX protein); recombinant human sclerostin
Method: An Enzyme-linked OligoNucleotide Assay (ELONA) was performed to determine the binding affinity of the aptamer candidates to sclerostin (Drolet, Moon-McDermott et al. 1996). Similarly, an Enzyme-linked ImmunoSorbent Assay (ELISA) was performed to determine the binding affinity of anti-sclerostin antibody to human sclerostin (Engvall and Perlmann 1971). 160 ng purified recombinant human sclerostin was coated to 96-well microtiter plate in 100 μl PBS by incubating at 4° C. overnight. The plate was then blocked with blocking buffer (PBS, 0.1% Tween 20 and 1% BSA) for 1 h at room temperature and washed with SELEX B&W buffer (PBS, 1mM MgCl2, 0.1% Tween 20 and 0.1% BSA) for 4 times. The aptamer candidates were denatured at 95° C. for 10 min and rapidly cooled on ice for 10 min before use. Appropriate concentrations of biotinylated aptamers/antibody were added into each well, then added SELEX B&W buffer to 100 μl and incubated for 45 min at room temperature with continuous gentle shaking. After binding, the plate was washed with SELEX B&W buffer for 4 times to remove non-specific and very weak binding, followed by washing with PBST+0.1% BSA for 4 times. […] Absorbance at 450 nm was measured with microplate reader (Stoltenburg, Krafcikova et al. 2016). Data was analyzed with Origin software (OriginLab, Northampton, MA). […]

sclerostin (UniProt Q9BQB4 Q9BQB4:24-213), sequence (Q9BQB4 24-213, one chain of several): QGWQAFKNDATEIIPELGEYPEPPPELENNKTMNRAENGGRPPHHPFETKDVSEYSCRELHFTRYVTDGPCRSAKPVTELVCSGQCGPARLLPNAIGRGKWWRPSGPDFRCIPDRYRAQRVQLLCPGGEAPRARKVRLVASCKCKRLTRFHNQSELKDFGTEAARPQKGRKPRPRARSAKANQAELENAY
sclerostin (Homo sapiens, UniProt Q9BQB4 SEQ:1-190), sequence (Q9BQB4 24-213): as the sequence (Q9BQB4 24-213, one chain of several) above

**Q.** Which results are given for CGGGGTGTGGGTTCGTCGTTAGCTTGATTTGGCAGCTGCC (ssDNA, 2'-OMe on first 4 (CGGG) and last 4 nucleotides; 3' idT) [modified aptscl 56]?
**A.** EC50 [1]: 14 µg/mL; Kd [2]: 6.55 nM
